Assays:
[1] = biological target: human SIRPA on human macrophages (primary monocyte-derived macrophages; U937 line) (human, UniProt P78324 31-504); experiment: cell-based or functional assay
soluble human FcgR1 = biological target: T1, soluble human FcgR1 (human, UniProt P12314 16-288); experiment: BLI (Octet RED96), antibody captured by anti-human Fab-CH1, 100 nM soluble human FcR
T1 construct: also called FcγRI; CD64
Protocol: (§1) FcR affinity measurements for anti-SIRPA antibody Fc variants were obtained using bio-layer interferometry (BLI) on a Pall ForteBio Octet RED96 instrument. […] Single cycle kinetics were performed with 100 nM of soluble human FcRs flowed over captured antibody to record traces (300 s association time, 300 s dissociation time). Data analysis was performed using ForteBio Data Analysis Software, version 9.0. Standard kinetic buffer (PBS, 0.1% BSA, 0.02% Tween-20, pH 7.2) was used for the assay and for preparing reagents.

[2] = biological target: T2, soluble human FcgR3A V158 (human, UniProt P08637 17-208); experiment: BLI (Octet RED96), antibody captured by anti-human Fab-CH1, soluble human FcR
T2 construct: also called CD16A V158
Protocol: as §1

soluble human FcgR2B = biological target: T3, soluble human FcgR2B (human, UniProt P31994 46-217); experiment: as above
T3 construct: also called CD32B
T3 sequence (looked up): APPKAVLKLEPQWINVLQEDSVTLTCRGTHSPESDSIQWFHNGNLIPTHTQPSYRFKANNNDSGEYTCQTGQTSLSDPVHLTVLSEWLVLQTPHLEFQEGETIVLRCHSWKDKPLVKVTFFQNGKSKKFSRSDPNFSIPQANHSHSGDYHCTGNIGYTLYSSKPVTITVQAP
Protocol: as §1

[3] = biological target: T4, soluble human FcgR2A R131 (human, UniProt P12318 36-218); experiment: as above
T4 construct: also called CD32A-R131
T4 sequence (looked up): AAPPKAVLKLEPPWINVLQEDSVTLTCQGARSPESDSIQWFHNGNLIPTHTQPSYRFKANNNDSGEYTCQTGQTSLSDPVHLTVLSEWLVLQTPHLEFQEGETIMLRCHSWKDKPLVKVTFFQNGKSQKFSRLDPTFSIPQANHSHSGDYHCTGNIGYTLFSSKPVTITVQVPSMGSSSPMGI
Protocol: as §1

[4] = biological target: T5, soluble human FcgR2A H131 (human, UniProt P12318 36-218); experiment: as above
T5 construct: also called CD32A-H131
T5 sequence (looked up): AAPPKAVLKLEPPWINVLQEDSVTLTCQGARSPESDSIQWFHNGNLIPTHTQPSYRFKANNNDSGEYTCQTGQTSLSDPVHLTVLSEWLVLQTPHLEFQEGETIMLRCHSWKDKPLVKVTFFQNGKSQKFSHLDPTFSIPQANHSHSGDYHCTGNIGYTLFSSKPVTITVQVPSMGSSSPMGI
Protocol: as §1

[5] = biological target: T6, soluble human FcgR3A F158 (human, UniProt P08637 17-208); experiment: as above
T6 construct: also called CD16A F158
Protocol: as §1

Sequence of human SIRPA on human macrophages (primary monocyte-derived macrophages; U937 line) (P78324 31-370): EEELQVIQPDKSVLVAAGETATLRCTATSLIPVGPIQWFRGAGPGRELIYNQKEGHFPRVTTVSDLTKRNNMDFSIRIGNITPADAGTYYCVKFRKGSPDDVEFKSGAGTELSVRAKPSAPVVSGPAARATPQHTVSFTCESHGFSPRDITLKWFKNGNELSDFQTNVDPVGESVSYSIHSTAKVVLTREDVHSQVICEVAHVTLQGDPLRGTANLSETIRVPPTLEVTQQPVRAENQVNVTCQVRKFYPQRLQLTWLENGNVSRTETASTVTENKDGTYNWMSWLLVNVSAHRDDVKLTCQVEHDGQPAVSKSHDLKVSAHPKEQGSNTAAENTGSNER
T2 sequence (P08637 17-208 F176V limits assumed): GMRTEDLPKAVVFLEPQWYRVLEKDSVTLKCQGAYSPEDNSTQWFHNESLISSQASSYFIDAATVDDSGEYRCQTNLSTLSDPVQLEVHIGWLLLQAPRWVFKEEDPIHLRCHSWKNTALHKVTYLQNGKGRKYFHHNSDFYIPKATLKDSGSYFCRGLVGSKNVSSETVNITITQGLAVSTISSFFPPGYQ
T1 sequence (P12314 16-288 limits assumed): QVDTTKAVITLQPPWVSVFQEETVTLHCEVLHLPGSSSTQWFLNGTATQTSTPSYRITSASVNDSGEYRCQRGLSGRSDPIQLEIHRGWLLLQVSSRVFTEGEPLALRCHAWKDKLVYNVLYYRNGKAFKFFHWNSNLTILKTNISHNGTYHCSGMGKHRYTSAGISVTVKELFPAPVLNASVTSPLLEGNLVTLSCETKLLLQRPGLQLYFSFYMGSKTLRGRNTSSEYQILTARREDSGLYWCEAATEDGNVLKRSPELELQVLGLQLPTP
T6 sequence (P08637 17-208 limits assumed): as the sequence (P08637 17-208 F176V limits assumed) above, with V160F counted along it

IC50 (nM), SIRPA downregulation on human monocyte-derived macrophages [1]: 0.0447 nM
Max % DR, SIRPA, human monocyte-derived macrophages [1]: 41.6%
binding result (soluble human FcgR1): binds
binding result [2]: no binding (tested: 100 nM)
binding result (soluble human FcgR2B): no binding (tested: 100 nM)
binding result [3]: no binding (tested: 100 nM)
binding result [4]: no binding (tested: 100 nM)
binding result [5]: no binding (tested: 100 nM)
B1: 3F9-22 hIgG1 LALAPS (antibody)
heavy: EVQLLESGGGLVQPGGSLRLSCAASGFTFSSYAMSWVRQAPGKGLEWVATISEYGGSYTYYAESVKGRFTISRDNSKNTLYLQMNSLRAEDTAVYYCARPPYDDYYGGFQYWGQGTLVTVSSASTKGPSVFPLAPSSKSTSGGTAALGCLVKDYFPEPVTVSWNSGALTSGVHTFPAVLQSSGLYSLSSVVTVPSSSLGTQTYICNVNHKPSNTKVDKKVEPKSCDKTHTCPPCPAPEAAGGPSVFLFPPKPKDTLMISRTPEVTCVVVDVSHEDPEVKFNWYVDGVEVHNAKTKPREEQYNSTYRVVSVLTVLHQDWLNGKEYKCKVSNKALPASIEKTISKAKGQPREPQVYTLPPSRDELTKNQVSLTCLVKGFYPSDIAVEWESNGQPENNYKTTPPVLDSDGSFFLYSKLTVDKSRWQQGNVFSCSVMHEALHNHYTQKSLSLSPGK
light: DIQLTQSPSSLSASVGDRVTITCRASKSVSSGGYSYMHWYQQKPGKAPKLLIYLASNLESGVPSRFSGSGSGTDFTLTISSVQPEDFATYYCQHNRELPVTFGQGTKLEIKRTVAAPSVFIFPPSDEQLKSGTASVVCLLNNFYPREAKVQWKVDNALQSGNSQESVTEQDSKDSTYSLSSTLTLSKADYEKHKVYACEVTHQGLSSPVTKSFNRGEC
notes: also called 3F9-22 LALAPS

From patent US20240301071A1 (Alector, published 2024)
